Like-named read-outs stand apart in the source and are kept apart here.

The target of test [1] is TAC-YFP-DAT C24 (C-terminus of the dopamine transporter on TAC-YFP) (not stated | not stated (human DAT is named for the β2-DAT8 constructs)). As to the kind of experiment: supported cell membrane sheets (SCMS), confocal microscopy, saturation binding; labelled PICK1 in sheet buffer (120 mM KCl, 2 mM MgCl2, 0.1 mM CaCl2, 10 mM HEPES, 30 mM glucose pH 7.35) overlaid for 2 h on ice on sheets from transfected HEK293 GripTite cells; PICK1 signal divided by receptor signal; apparent affinity (Kd*), headed EC50 in the tables.

The target in test [2] is FLAG-β2 DAT8 LKI (rat (Rattus norvegicus) | human). Described as above.
The target of test [3] is FLAG-β2 DAT8 LKA (rat (Rattus norvegicus) | human). The test is described as above.
For test [4], the target named is TAC-YFP-GluA2 (24 C-terminal residues of GluA2 on the IL-2 receptor α-subunit fused to YFP) (not stated | rat (Rattus norvegicus)). The description is as above.
Test [5] addresses FLAG-β2 DAT8 LKI (rat (Rattus norvegicus) | human). As to the kind of experiment: supported cell membrane sheets (SCMS), confocal microscopy, dissociation time course; PICK1 dissociation from sheets expressing LKV (two-state fit) or LKI (one-state fit).
The target in test [6] is TAC-YFP-DAT C24 (C-terminus of the dopamine transporter on TAC-YFP) (not stated | not stated (human DAT is named for the β2-DAT8 constructs)). The experiment in a line: supported cell membrane sheets (SCMS), confocal microscopy, association time course; PICK1 binding as a function of incubation time; PICK1 100 nM for LKV and LKI.
Test [7] addresses FLAG-β2 DAT8 LKI (rat (Rattus norvegicus) | human). The description is as above.
The target is the same in test [8]. The test is described as above. The source holds these as a separate data set.
Test [9] addresses TAC-YFP-DAT C24 (C-terminus of the dopamine transporter on TAC-YFP) (not stated | not stated (human DAT is named for the β2-DAT8 constructs)). As to the kind of experiment: supported cell membrane sheets (SCMS), confocal microscopy, competition binding; 100 nM labelled SNAP-PICK1 premixed with increasing unlabelled PICK1 WT, 120 min, on sheets expressing TAC-YFP-DAT; half maximal binding reported as Ki*.

The target in test [10] is Oregon Green-labeled DAT C13 peptide (not stated (human DAT is named for the β2-DAT8 constructs)). The experiment in a line: fluorescence polarisation; saturation: PICK1 diluted to various concentrations, 20 nM OrG DAT C13; 50 mM Tris pH 7.4, 125 mM NaCl, 1 mM DTT, 0.01% Triton X-100; 30 min on ice. Background: Fluorescence polarisation rises when a labelled molecule tumbles more slowly, as on binding a larger partner.

Test [11] addresses FLAG-β2 DAT8 LKI (rat (Rattus norvegicus) | human). The experiment in a line: supported cell membrane sheets (SCMS), confocal microscopy, saturation binding of exchanged dimers; monomers purified in 0.1% TX-100, mixed and diluted at least 100-times to form WT/WT or WT/A87L dimers (A87L in 4 times excess); sheets expressing LKV or LKI; read in the WT and the A87L channel; apparent (Kd*).

One may read the EC50 as the concentration at which the effect is half-maximal. Consider “SNAP-PICK1 WT (PICK1 with an N-terminal SNAP-tag, fluorescently labelled) (from UniProt Q9EP80 1-416) (natural protein)”, for which the concentration for a half-maximal effect (EC50) in [1] came to 47 nM; in test [2] it was 29 nM; in test [3] it was 59 nM; in test [4], 73 nM. Moreover, the Kd* (apparent affinity) in test [2] was determined as 39 nM. The dissociation half-life in test [5] came out at 7.18 h. For the same substance, the figures for the time to half maximum binding in test [6], in test [7] and in test [8] were 19 min, 14 min and 11 min, respectively.
Usually IC50 stands for the concentration needed to halve the response being measured. Broadly, the Kd is a measure of binding affinity in units of concentration. A lower Kd goes with tighter binding. The substance “PICK1 WT without SNAP-tag (from UniProt Q9EP80 1-416) (natural protein)” showed an IC50 in test [9] of 29 nM. For the same substance, in [10], the Kd came to 9000 nM.
As for “PICK1 WT/A87L heterodimer (from UniProt Q9EP80 1-416; Q9EP80 1-416) (complex)”, in test [11], the concentration for a half-maximal effect (EC50) was determined as 123 nM.

Source of the values: publication PMC6345565.
